Ends that are not written are not given here.
B1: 5% TBP-functionalized PEG polymer of Table 4, M:CTA:I 250:1:0.1, Mn 42.3 kDa (peptide)
peptide: TPLSYLKGLVTVG-OH
modifications: not fully specified (N-terminus); also: RAFT copolymer with PEG methyl ether methacrylate (300 Da), about 5 peptides per chain
B2: 20% peptide monomer TBP-functionalized PEG polymer of Table 1 (Mn 26700 Da, 17.1% peptide incorporated) (peptide)
peptide: TPLSYLKGLVTVG-OH
modifications: not fully specified (N-terminus); also: RAFT random copolymer with PEG monomethyl ether methacrylate
B3: 20% TBP-functionalized PEG polymer of Table 4, M:CTA:I 500:1:0.1, Mn 32.7 kDa (peptide)
peptide: TPLSYLKGLVTVG-OH
modifications: not fully specified (N-terminus); also: RAFT copolymer with PEG methyl ether methacrylate (300 Da), about 12 peptides per chain
B4: 5% TBP-functionalized PEG polymer of Table 4, M:CTA:I 125:1:0.1, Mn 17.1 kDa (peptide)
peptide: TPLSYLKGLVTVG-OH
modifications: not fully specified (N-terminus); also: RAFT copolymer with PEG methyl ether methacrylate (300 Da), about 3 peptides per chain
B5: 5% TBP-functionalized PEG polymer of Table 4, M:CTA:I 600:1:0.1, Mn 98.2 kDa (peptide)
peptide: TPLSYLKGLVTVG-OH
modifications: not fully specified (N-terminus); also: RAFT copolymer with PEG methyl ether methacrylate (300 Da), about 11 peptides per chain
B6: 10% peptide monomer TBP-functionalized PEG polymer of Table 1 (Mn 69000 Da, 7.5% peptide incorporated) (peptide)
peptide: TPLSYLKGLVTVG-OH
modifications: not fully specified (N-terminus); also: RAFT random copolymer with PEG monomethyl ether methacrylate
B7: 5% peptide monomer TBP-functionalized PEG polymer of Table 1 (Mn 103900 Da, 3.9% peptide incorporated) (peptide)
peptide: TPLSYLKGLVTVG-OH
modifications: not fully specified (N-terminus); also: RAFT random copolymer with PEG monomethyl ether methacrylate

Columns and labels:
[1] = molecular target: type V tartrate-resistant acid phosphatase (TRAP) protein, immobilised on CM5 sensor chip; test: SPR, TRAP amine-coupled to CM5 chip, initial rate analysis of sensorgrams
[2] = molecular target: type V tartrate-resistant acid phosphatase (TRAP) protein, immobilised on CM5 sensor chip; test: SPR, TRAP-functionalized surface, binding curve fit (n = 2, Ave. ± StDev)
[3] = molecular target: type V tartrate-resistant acid phosphatase (TRAP) protein, immobilised on CM5 sensor chip; test: SPR, TRAP-functionalized surface; lower end of the range told of the peptide-functionalized polymers, tied to the 20% polymer through Table 1
[4] = molecular target: type V tartrate-resistant acid phosphatase (TRAP) protein, immobilised on CM5 sensor chip; test: SPR, TRAP-functionalized surface; upper end of the range told of the peptide-functionalized polymers, tied to the 5% polymer through Table 1

Binder | Kd [1] [µM] | Kd [2] [µM] | further results
B1 | 80 |  | 
B2 |  | 7.5 | Kd [3]: 7.1 to 21 µM
B3 | 70 |  | 
B4 | 70 |  | 
B5 | 140 |  | 
B6 |  | 12.7 | 
B7 |  | 21.7 | Kd [4]: 7.1 to 21 µM

Reference: patent US20150374663A1
